# Data: FireProtDB (doi:10.1111/j.1432-1033.1992.tb16932.x)
# B1: Ribonuclease HI, P0A7Y4 (parent)
# chain: MLKQVEIFTDGSCLGNPGPGGYGAILRYRGREKTFSAGYTRTTNNRMELMAAIVALEALKEHCEVILSTDSQYVRQGITQWIHNWKKRGWKTADKKPVKNVDLWQRLDAALGQHQIKWEWVKGHAGHPENERCDELARAAAMNPTLEDTGYQVEV
# Variants of: B1
# Settings: Escherichia coli (strain K12), CD, reversible: yes, structure 2RN2, whole UniProt chain shown
# [1] = pH 3, 49.8 °C, Thermal, glycine-HCl 10 mM
# [2] = pH 3, Thermal, glycine-HCl 10 mM
# [3] = pH 5.5, 25 °C, Urea, Sodium acetate 10 mM, NaCl 0.1 M
Variant,ddG of mutation (higher = less stable) [1] [kcal/mol],Tm [2] [°C],"change of melting temperature, mutant - wild type (higher = more stable) [2] [°C]",unfolding enthalpy (van 't Hoff) [2] [kcal/mol],ddG of mutation (higher = less stable) [3] [kcal/mol],denaturant m value [3] [kcal/mol/M],denaturant midpoint (higher = more stable) [3] [M],unfolding free energy [3] [kcal/mol]
MLKQVEIFTDGSCLGNPGPGGYGAILRYRGREKTFSAGYTRTTNNRMELMAAIVALEALKEHCEVILATDSQYVRQGITQWIHNWKKRGWKTADKKPVKNVDLWQRLDAALGQHQIKWEWVKGHAGHPENERCDELARAAAMNPTLEDTGYQVEV [S68A],0.5,48.3,-1.5,89,-0.19,2.06,4.8,10
MLKQVEIFTDGSCLGNPGPGGYGAILRYRGREKTFSAGYTRTTNNRMELMAAIVALEALKEHCEVILGTDSQYVRQGITQWIHNWKKRGWKTADKKPVKNVDLWQRLDAALGQHQIKWEWVKGHAGHPENERCDELARAAAMNPTLEDTGYQVEV [S68G],2.4,41.8,-8,84.7,2.2,2,4,7.61
MLKQVEIFTDGSCLGNPGPGGYGAILRYRGREKTFSAGYTRTTNNRMELMAAIVALEALKEHCEVILLTDSQYVRQGITQWIHNWKKRGWKTADKKPVKNVDLWQRLDAALGQHQIKWEWVKGHAGHPENERCDELARAAAMNPTLEDTGYQVEV [S68L],0.5,48.2,-1.6,84,–,–,–,–
MLKQVEIFTDGSCLGNPGPGGYGAILRYRGREKTFSAGYTRTTNNRMELMAAIVALEALKEHCEVILTTDSQYVRQGITQWIHNWKKRGWKTADKKPVKNVDLWQRLDAALGQHQIKWEWVKGHAGHPENERCDELARAAAMNPTLEDTGYQVEV [S68T],0.2,49.1,-0.7,106,-0.1,1.95,5,9.91
MLKQVEIFTDGSCLGNPGPGGYGAILRYRGREKTFSAGYTRTTNNRMELMAAIVALEALKEHCEVILVTDSQYVRQGITQWIHNWKKRGWKTADKKPVKNVDLWQRLDAALGQHQIKWEWVKGHAGHPENERCDELARAAAMNPTLEDTGYQVEV [S68V],-0.6,51.7,1.9,98.8,-1.29,2.13,5.1,11.1
